This passage reports recovery (percent vector genomes of input), percent of input virus in flow-through and fraction of input AAV in the flow-through results from US20230303983A1.

For one experiment, the target named is AAV6.2 capsid. Briefly: static binding assay on AAVX resin, qPCR of vector genomes.
Another experiment has as its target AAV7 capsid. The description is as above.
In the next experiment the target is PHP.B capsid. Described as above.
The target of the next experiment is AAV5 capsid. The description is as above.
The next experiment addresses AAV4 capsid. The description is as above.
For a further experiment, the target named is Anc80 capsid. Described as above.
The target in another experiment is AAV7m8 capsid. The experiment is described as above.
The next experiment addresses rh32.33 capsid. Described as above.
Another experiment has as its target rh10 capsid. The description is as above.
In another experiment the target is AAV8 capsid. The experiment is described as above.
The target in experiment [1] is AAV2 capsid (AAV particles of serotype AAV2) (UniProt P03135). The description is as above.
Sequence of UniProt P03135 (P03135 whole entry): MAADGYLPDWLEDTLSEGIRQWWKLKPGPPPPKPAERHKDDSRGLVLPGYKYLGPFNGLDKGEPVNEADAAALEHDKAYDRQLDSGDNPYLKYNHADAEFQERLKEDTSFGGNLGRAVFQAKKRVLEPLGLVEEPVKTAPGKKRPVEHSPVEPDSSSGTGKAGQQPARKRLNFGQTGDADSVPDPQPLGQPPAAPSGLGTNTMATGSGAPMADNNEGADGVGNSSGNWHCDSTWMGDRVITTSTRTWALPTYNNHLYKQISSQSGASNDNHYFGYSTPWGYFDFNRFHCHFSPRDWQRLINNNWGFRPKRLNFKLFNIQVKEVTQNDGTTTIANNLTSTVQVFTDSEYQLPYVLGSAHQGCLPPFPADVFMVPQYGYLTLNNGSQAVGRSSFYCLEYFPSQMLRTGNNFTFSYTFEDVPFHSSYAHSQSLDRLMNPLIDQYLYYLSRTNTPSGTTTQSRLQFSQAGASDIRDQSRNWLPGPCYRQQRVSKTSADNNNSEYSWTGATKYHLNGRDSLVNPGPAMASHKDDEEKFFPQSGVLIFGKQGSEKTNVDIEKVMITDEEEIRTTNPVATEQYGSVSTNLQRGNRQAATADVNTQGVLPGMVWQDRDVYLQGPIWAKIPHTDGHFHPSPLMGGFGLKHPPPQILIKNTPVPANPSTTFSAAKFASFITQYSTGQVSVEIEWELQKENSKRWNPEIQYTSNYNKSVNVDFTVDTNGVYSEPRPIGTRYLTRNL
Experiment [2] addresses AAV9 capsid. Described as above.
The target in the next experiment is AAV2_HSPG capsid. Described as above.
The next experiment has as its target AAV1 capsid. Briefly: AAVX affinity HPLC, five consecutive small-scale preps on the same resin, qPCR of fractions. A general note: Real-time PCR tracks product formation cycle by cycle.
In the next experiment the target is PHP.eB capsid. Briefly: AAVX affinity HPLC at room temperature (24 C), qPCR of flow-through.
The target in experiment [3] is AAV9 capsid. The experiment is described as above.

Bounds are passed on as bounds.

On to “POROS CaptureSelect AAVX resin ligand (camelid heavy-chain-only single-domain antibody fragment linked to poly[styrene divinylbenzene] beads) (VHH)”, for which the recovery (percent vector genomes of input) with AAV6.2 capsid was more than 95%; with AAV7 capsid, more than 95%; with PHP.B capsid it was more than 95%; in the experiment with AAV5 capsid it was more than 95%; in the experiment with AAV4 capsid, more than 95%; in the experiment with Anc80 capsid, 80%. Besides, the recovery (percent vector genomes of input) (with AAV7m8 capsid; with rh32.33 capsid; in the experiment with rh10 capsid; with AAV8 capsid; in experiment [1]; in the experiment with AAV9 capsid [2]) was more than 95% in each case. The substance also registered a recovery (percent vector genomes of input) with AAV2_HSPG capsid of more than 95%. Moreover, in the experiment with AAV1 capsid, the percent of input virus in flow-through was less than 2%. The fraction of input AAV in the flow-through with PHP.eB capsid and in the experiment with AAV9 capsid [3] was less than 5% throughout.
